Results from patent US20140363428A1 (Chugai, published 2014).

Tests used:
[1] = biological target: T1, soluble human FcRn (heterodimer of FcRn alpha chain and beta2-microglobulin) (human, UniProt P55899 24-297; P61769 21-119); assay: statement in Example 3
T1 construct: Signal regions are part of the expressed constructs; also called hFcRn

[2] = biological target: T1, soluble human FcRn (heterodimer of FcRn …); assay: SPR, hFcRn at pH 7.0
human IgA [3] = biological target: T2, human IgA (human); assay: SPR Biacore T200, 37 C; pH 5.8, 1.2 mM Ca; steady state affinity
T2 construct: Recombinant antigen; variable region derived from an anti-human IL-6 receptor antibody; also called hIgA
Experimental: (§1) The antibodies isolated as described in 8-2 were assessed for their hIgA-binding activity (dissociation constant KD (M)) using Biacore T200 (GE Healthcare). Running buffers used in the measurement were 0.05% tween20/20 mmol/L ACES/150 mmol/L NaCl (pH 7.4 or 5.8) containing 3 microM or 1.2 mM CaCl₂.
(§2) The antibody was allowed to bind to Sensor chip CM5 (GE Healthcare) immobilized with a suitable amount of recombinant Protein A/G (Thermo Scientific) by the amino coupling method. Then, an appropriate concentration of hIgA (described in 8-1) was injected as an analyte to allow interaction with the antibody on the sensor chip. The measurement was carried out at 37 degrees C. After the measurement, 10 mmol/L glycine-HCl (pH 1.5) was injected to regenerate the sensor chip. The dissociation constant KD (M) was calculated from the measurement result by curve fitting analysis and equilibrium parameter analysis using Biacore T200 Evaluation Software (GE Healthcare).

human IgA [4] = biological target: T2, human IgA; assay: SPR Biacore T200, 37 C; pH 5.8, 3 microM Ca; steady state affinity
Experimental: as §1, §2

human IgA [5] = biological target: T2, human IgA; assay: SPR Biacore T200, 37 C; pH 7.4, 3 microM Ca; steady state affinity
Experimental: as §1, §2

human IgA [6] = biological target: T2, human IgA; assay: SPR Biacore T200, 37 C, Ab on Protein A/G, hIgA analyte; pH 7.4, 1.2 mM Ca; 1:1 binding model
Experimental: as §1, §2

human IgA [7] = biological target: T2, human IgA; assay: SPR Biacore T200, 37 C, Ab on Protein A/G, hIgA analyte; pH 7.4, 1.2 mM Ca; 1:1 binding model; pH 7.4, 1.2 mM Ca; 1:1 binding model
Experimental: as §1, §2

T2 sequence (VH, as listed by the source): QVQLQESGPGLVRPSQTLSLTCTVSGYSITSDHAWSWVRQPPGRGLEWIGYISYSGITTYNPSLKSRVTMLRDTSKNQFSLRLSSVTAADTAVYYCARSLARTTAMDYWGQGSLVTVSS
T1 sequence (P55899 24-297 limits assumed, chain 1 of 2): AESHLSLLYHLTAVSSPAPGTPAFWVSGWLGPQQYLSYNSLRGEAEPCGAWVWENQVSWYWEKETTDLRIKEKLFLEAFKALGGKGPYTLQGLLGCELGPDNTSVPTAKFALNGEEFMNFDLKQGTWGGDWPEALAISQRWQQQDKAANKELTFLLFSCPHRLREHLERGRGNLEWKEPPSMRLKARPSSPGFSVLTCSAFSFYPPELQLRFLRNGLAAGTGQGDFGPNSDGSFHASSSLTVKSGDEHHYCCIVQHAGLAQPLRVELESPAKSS
T1 sequence (P61769 21-119 limits assumed, chain 2 of 2): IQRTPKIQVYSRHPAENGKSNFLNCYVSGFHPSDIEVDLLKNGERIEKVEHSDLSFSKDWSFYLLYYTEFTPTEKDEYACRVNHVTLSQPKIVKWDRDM

B1: Fv-4-F946 (antibody, human IgG1, kappa)
heavy: QVQLQESGPGLVKPSETLSLTCAVSGHSISHDHAWSWVRQPPGEGLEWIGFISYSGITNYNPSLQGRVTISRDNSKNTLYLQMNSLRAEDTAVYYCARSLARTTAMDYWGEGTLVTVSSASTKGPSVFPLAPSSKSTSGGTAALGCLVKDYFPEPVTVSWNSGALTSGVHTFPAVLQSSGLYSLSSVVTVPSSSLGTQTYICNVNHKPSNTKVDKKVEPKSCDKTHTCPPCPAPELLGGPSVFLFPPKPKDVLYISRTPEVTCVVVDVSHEDPEVKFNWYVDGVEVHNAKTKPREEQYNSTYRVVSVLQVLHADWLNGKEYKCKVSNKALPAPIEKTISKAKGQPREPQVYTLPPSRDELTKNQVSLTCLVKGFYPSDIAVEWESNGQPENNYKTTPPVLDSDGSFFLYSKLTVDKSRWQQGNVFSCSVMHEALHYHVTQKSLSLSP
light: DIQMTQSPSSLSASVGDSVTITCQASTDISSHLNWYQQKPGKAPELLIYYGSHLLSGVPSRFSGSGSGTDFTFTISSLEAEDAATYYCGQGNRLPYTFGQGTKVEIERTVAAPSVFIFPPSDEQLKSGTASVVCLLNNFYPREAKVQWKVDNALQSGNSQESVTEQDSKDSTYSLSSTLTLSKADYEKHKVYACEVTHQGLSSPVTKSFNRGEC
notes: VH3-F946 and VL3-CK
- binding result [1]: binds

B2: Fv-4-F1080 (antibody, human IgG1, kappa, name in EU numbering)
heavy: QVQLQESGPGLVKPSETLSLTCAVSGHSISHDHAWSWVRQPPGEGLEWIGFISYSGITNYNPSLQGRVTISRDNSKNTLYLQMNSLRAEDTAVYYCARSLARTTAMDYWGEGTLVTVSSASTKGPSVFPLAPSSKSTSGGTAALGCLVKDYFPEPVTVSWNSGALTSGVHTFPAVLQSSGLYSLSSVVTVPSSSLGTQTYICNVNHKPSNTKVDKKVEPKSCDKTHTCPPCPAPELLGGPSVFLFPPKPKDTLYISRTPEVTCVVVDVSHEDPEVKFNWYVDGVEVHNAKTKPREEQYNSTYRVVSVLTVLHQDWLNGKEYKCKVSNKALPAPIEKTISKAKGQPREPQVYTLPPSRDELTKNQVSLTCLVKGFYPSDIAVEWESNGQPENNYKTTPPVLDSDGSFFLYSKLTVDKSRWQQGNVFNCSVMHEALHYHYTQKSLSLSP
light: DIQMTQSPSSLSASVGDSVTITCQASTDISSHLNWYQQKPGKAPELLIYYGSHLLSGVPSRFSGSGSGTDFTFTISSLEAEDAATYYCGQGNRLPYTFGQGTKVEIERTVAAPSVFIFPPSDEQLKSGTASVVCLLNNFYPREAKVQWKVDNALQSGNSQESVTEQDSKDSTYSLSSTLTLSKADYEKHKVYACEVTHQGLSSPVTKSFNRGEC
modifications: additional N-glycosylation found by SDS-PAGE (S424N)
- binding result [2]: binds

B3: GA2-IgG1 (antibody, V domains shown)
VH: QVQLVQSGAEVKKPGSSVKVSCKASGGTFSSYAISWVRQAPGQGLEWMGGIIPIFGTANYAQKFQGRVTITADESTSTAYMELSSLRSEDTAVYYCARPRWETAISSDAFDIWGQGTMVTVSS
VL: DIQMTQSPSSLSASVGDRVTITCRASQSISDDLNWYQQKPGKAPKLLIYEASNLQSGVPSRFSGSGSGTDFTLTISSLQPEDFATYYCQQHSSSPLTFGQGTKVEIKR
- Kd (human IgA [3]): 4 µM
- Kd (human IgA [4]): 5 µM
- Kd (human IgA [5]): 6.7 µM
- Kd (human IgA [6]): 39 nM
- kon (human IgA [7]): 400000 M⁻¹ s⁻¹
